Data reported in patent US7850981B2, “Immuno-adjuvant PDT treatment of metastatic tumors” (QLT, Inc., priority 1999, dated 2010).
Like-named read-outs stand apart in the source and are kept apart here.

Experiments:
DC [1] = conditions: after multiple injections, cited from earlier work
DC [2] = assay: Preliminary experiments: daily injection of FLT3 L into mice, numbers of DC; assay type: in vivo; conditions: daily injection of 10 μg into mice for 10 days

B1: FLT3-ligand: cytokine factor promoting growth of hematopoietic progenitors; increases dendritic cell numbers (protein, UniProt P49771 27-235, looked up)
Fms-related tyrosine kinase 3 …: TQDCSFQHSPISSDFAVKIRELSDYLLQDYPVTVASNLQDEELCGGLWRLVLAQRWMERLKTVAGSKMQGLLERVNTEIHFVTKCAFQPPPSCLRFVQTNISRLLQETSEQLVALKPWITRQNFSRCLELQCQPDSSTLPPPWSPRPLEATAPTAPQPPLLLLLLLPVGLLLLAAAWCLHWQRTRRRTPRPGEQVPPVPSPQDLLLVEH
DC [1]; blood
  increase in DC numbers: ~6 fold
DC [1]; peripheral lymph nodes
  increase in DC numbers: ~4 fold
DC [1]; spleen
  increase in DC numbers: approximately 17 fold
DC [2]
  numbers of DC: dramatically increase
